Results on one molecule are retold here after patent publication US20230192839A1, “ANTIBODIES HAVING CONDITIONAL AFFINITY AND METHODS OF USE THEREOF” (PFIZER INC., priority 2017, published 2023).

The test has as its system MV4-11 target cells (which express CD33). In words: IL-2 and IFN-γ secretion by CD33-specific conditional CAR T cells after CAR or TCR stimulation. Type of test: cell-based, human. Conditions: activation via anti-CD33 CAR by MV4-11 cells; 100 µM MTX; 24 hours; FIGS. 6A and 6C. As for the experimental part:
The example examines the levels secretion of the cytokines IL-2 and IFN-γ by conditional CAR T cells containing an anti-CD33 antibody having conditional affinity, after stimulation of the CAR T cell via either i) the CAR in the CAR T cell or ii) the TCR in the CAR T cell. In addition, these were examined in both the presence and absence of methotrexate (MTX).
The anti-CD33 clone used in this example was P02_D09. […] In addition, a tool T cell was prepared as described in Example 4, as were untransduced T cells.
The target cell line used in this assay was MV4-11, as described in Example 5.
Assays were carried out in 96-well plates by culturing 100,000 T cells with various other reagents (depending on the assay), for each of the different T cells described above. Each of the co-cultures contained either 100 µM MTX or 0 µM MTX. In both conditions, 1 mM leucovorin was supplemented to circumvent MTX toxicity. To stimulate the CAR T cells via the anti-CD33 CARs, 100,000 MV4-11 target cells (which express CD33) were included in the culture with the T cells. To stimulate the CAR T cells via the TCR, T cell Activation/Expansion Beads (Miltenyi) were included in the culture with the T cells (i.e. in the absence of target cells). […] The cytokines in the supernatant were measured using U-PLEX Th1/Th2 Combo plates (Meso-Scale Discovery; Rockville, MD) according to the manufacturer’s specifications.

B1: P02_D09: anti-CD33 clone with conditional affinity; VH SEQ ID NO: 35, VL SEQ ID NO: 36; also as scFv in CAR (antibody, V domains shown)
VH: QVQLVESGGGLVQAGGSLRLSCAASRRSSRSWAMHWVRQAPGKGLEWVAVISYDGRLKYYADSVKGRFTISRDNAEYLVYLQMNSLRAEDTAVYYCAAEEGDGGFFDYWGQGTLVTVSS
VL: QSVLTQPPSASGTPGQRVTISCSGSSSNIGSNYVNWYQQLPGTAPKLLIYRNNERPSGVPDRFSGSKSGTSASLAISGLRSEDEADYYCAAWDGSLSGRGVFGTGTKLTVL
modifications: Synthetic Antibody
notes: also as scFv in CAR
As to B1, the “IL-2 and IFN-γ production, CAR stimulation, presence of MTX” value is “reduced back to the level comparable to that of unstimulated T cells”.
